T1: human MASP-3 (construct not stated) (human)
T1 construct: also called MASP-3 antigen
T1 chain: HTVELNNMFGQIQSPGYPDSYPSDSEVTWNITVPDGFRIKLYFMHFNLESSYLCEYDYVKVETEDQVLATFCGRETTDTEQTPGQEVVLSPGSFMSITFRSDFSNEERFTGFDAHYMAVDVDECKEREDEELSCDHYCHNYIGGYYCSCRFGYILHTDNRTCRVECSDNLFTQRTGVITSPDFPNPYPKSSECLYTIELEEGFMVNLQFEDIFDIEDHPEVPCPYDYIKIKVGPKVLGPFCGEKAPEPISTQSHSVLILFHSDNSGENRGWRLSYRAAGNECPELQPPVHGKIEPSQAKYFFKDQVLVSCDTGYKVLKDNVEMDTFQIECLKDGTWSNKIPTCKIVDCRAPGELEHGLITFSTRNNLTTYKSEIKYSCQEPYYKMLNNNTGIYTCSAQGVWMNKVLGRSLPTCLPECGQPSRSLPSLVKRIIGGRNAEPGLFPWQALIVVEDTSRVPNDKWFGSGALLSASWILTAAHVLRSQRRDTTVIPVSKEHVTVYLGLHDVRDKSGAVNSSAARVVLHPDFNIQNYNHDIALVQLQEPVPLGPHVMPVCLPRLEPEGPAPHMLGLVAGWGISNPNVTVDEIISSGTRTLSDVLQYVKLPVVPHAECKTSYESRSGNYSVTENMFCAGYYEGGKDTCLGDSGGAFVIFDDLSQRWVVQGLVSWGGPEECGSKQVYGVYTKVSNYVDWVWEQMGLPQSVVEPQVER

T2: recombinant human MASP-1A (S646A, CCP1-CCP2-SP fragment) (human, UniProt P48740 298-699, limits assumed)
T2 chain: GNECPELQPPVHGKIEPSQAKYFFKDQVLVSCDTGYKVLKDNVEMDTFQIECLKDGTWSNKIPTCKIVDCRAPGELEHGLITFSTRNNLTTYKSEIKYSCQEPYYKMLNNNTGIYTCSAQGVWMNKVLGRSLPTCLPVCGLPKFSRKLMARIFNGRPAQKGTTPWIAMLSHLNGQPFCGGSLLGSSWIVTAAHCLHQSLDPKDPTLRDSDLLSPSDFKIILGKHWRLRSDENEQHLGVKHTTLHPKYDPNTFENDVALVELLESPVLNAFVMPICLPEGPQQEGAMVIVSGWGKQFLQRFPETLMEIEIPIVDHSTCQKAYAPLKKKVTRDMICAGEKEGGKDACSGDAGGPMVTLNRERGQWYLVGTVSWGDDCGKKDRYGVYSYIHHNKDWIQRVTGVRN

T3: human MASP-3 CCP1-CCP2-SP fragment (human)
T3 construct: limits of the assay construct are not restated; also called rMASP-3 (CCP1-CCP2-SP)
T3 chain: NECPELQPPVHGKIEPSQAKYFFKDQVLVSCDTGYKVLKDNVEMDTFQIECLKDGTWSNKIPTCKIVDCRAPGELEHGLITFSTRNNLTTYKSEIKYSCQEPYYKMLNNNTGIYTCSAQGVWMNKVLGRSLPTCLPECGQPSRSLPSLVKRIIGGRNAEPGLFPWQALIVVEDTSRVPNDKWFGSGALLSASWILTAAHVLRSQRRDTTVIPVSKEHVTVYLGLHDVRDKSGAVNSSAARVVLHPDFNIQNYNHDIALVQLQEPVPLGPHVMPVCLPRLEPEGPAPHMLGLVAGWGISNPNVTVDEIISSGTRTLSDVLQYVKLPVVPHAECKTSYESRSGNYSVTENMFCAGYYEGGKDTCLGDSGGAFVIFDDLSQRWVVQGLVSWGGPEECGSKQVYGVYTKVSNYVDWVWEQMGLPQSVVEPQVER

T4: recombinant full-length mouse MASP-3 (mouse)
T4 construct: Entry is with leader; also called mouse full length MASP-3
T4 chain: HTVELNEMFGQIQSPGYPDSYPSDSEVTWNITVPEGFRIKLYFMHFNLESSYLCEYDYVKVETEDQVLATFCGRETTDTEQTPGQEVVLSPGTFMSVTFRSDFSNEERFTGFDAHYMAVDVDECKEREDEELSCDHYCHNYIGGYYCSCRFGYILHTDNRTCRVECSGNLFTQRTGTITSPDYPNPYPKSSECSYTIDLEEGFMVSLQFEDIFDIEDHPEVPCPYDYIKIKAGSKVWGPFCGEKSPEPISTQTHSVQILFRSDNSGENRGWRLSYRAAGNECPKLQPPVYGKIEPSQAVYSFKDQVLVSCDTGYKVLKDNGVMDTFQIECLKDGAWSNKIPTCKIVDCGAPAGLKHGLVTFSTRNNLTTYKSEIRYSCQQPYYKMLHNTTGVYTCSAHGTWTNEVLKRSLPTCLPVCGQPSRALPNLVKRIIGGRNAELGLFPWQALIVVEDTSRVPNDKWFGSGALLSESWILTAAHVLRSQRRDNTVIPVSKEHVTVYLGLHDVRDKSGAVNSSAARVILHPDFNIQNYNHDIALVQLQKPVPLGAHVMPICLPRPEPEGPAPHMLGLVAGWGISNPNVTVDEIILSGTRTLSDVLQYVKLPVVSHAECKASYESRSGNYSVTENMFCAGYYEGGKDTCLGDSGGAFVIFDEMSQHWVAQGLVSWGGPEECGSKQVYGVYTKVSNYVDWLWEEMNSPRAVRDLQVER


Columns and labels:
[1] = target: T1, human MASP-3 (construct not stated); experiment: ELISA, monovalent Fab
[2] = target: T2, recombinant human MASP-1A (S646A, …); experiment: ELISA: recombinant MASP-1A (S646A, CCP1-CCP2-SP) coated directly on the plate, A450
Description: (§1) The plate was then washed (PBS-T, 0.05%) and the candidate MASP-3 antibodies were added followed by incubation for one hour at room temperature. The plate was washed (PBS-T, 0.05%) and a detection antibody was added (mouse anti-human kappa-HRP, SouthernBiotech #9230-05) for one hour at room temperature. After another wash (PBS-T, 0.05%) the plate was developed (5 minutes) with OPT EIA TMB (BD Biosciences #555214). Absorbance reading at A450 was measured using the Spectramax M5e plate reader.

[3] = target: T1, human MASP-3 (construct not stated); experiment: not described at this place
[4] = target: T3, human MASP-3 CCP1-CCP2-SP fragment; experiment: sandwich ELISA, MASP-3 CCP1-CCP2-SP captured by αM3-259
Description: as §1

[5] = target: T4, recombinant full-length mouse MASP-3; experiment: sandwich ELISA, full-length mouse MASP-3 captured by αM3-259
Description: as §1

[6] = target: T5, recombinant human MASP-2 (CCP1-CCP2-SP fragment) (human, UniProt O00187 298-686, limits assumed); experiment: ELISA: recombinant MASP-2 (CCP1-CCP2-SP) coated directly on the plate, A450
T5 construct: domain: CCP1-CCP2-SP fragment
Description: as §1

T5 sequence (O00187 298-686 limits assumed): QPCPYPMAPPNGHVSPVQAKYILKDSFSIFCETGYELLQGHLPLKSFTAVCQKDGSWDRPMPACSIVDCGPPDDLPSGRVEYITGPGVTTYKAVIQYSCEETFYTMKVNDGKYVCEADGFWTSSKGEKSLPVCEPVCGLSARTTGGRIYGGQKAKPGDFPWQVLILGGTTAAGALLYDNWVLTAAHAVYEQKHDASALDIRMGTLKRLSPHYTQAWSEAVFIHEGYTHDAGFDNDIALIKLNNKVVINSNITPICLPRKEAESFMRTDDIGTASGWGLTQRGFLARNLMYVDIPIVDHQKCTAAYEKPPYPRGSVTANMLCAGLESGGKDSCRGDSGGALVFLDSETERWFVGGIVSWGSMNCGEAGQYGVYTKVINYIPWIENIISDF

Binder | EC50 [1] | binding affinity [3] | EC50 [4] | EC50 [5] | binding result [2] | binding result [6]
h4D5-19-1-NA Fab (VH-19 and VL-1-NA) (Fab, V domains shown, Humanized monovalent Fab; also called 4D5-NA mutant) VH: QVQLVQSGAEVKKPGASVKVSCKASGYTFTTDDINWVRQAPGQGLEWIGWIYPRDDRTKYNDKFKDRATLTVDTSSNTAYMELSSLRSEDTAVYYCSSLEDTYWGQGTLVTVSS VL: DIVMTQSPDSLAVSLGERATINCKSSQSLLASRTRKNYLAWYQQKPGQPPKLLIYWASTRESGVPDRFSGSGSGTDFTLTISSLQAEDVAVYYCKQSYNLYTFGQGTKVEIKR | 0.122 nM | – | – | – | – | –
h4D5-19-1-NQ Fab (VH-19 and VL-1-NQ) (Fab, V domains shown, also called 4D5-NQ mutant) VH: QVQLVQSGAEVKKPGASVKVSCKASGYTFTTDDINWVRQAPGQGLEWIGWIYPRDDRTKYNDKFKDRATLTVDTSSNTAYMELSSLRSEDTAVYYCSSLEDTYWGQGTLVTVSS VL: DIVMTQSPDSLAVSLGERATINCKSSQSLLQSRTRKNYLAWYQQKPGQPPKLLIYWASTRESGVPDRFSGSGSGTDFTLTISSLQAEDVAVYYCKQSYNLYTFGQGTKVEIKR | 0.732 nM | – | – | – | – | –
h4D5-19-1-ST Fab (VH-19 and VL-1-ST) (Fab, V domains shown, also called 4D5-ST mutant) VH: QVQLVQSGAEVKKPGASVKVSCKASGYTFTTDDINWVRQAPGQGLEWIGWIYPRDDRTKYNDKFKDRATLTVDTSSNTAYMELSSLRSEDTAVYYCSSLEDTYWGQGTLVTVSS VL: DIVMTQSPDSLAVSLGERATINCKSSQSLLNTRTRKNYLAWYQQKPGQPPKLLIYWASTRESGVPDRFSGSGSGTDFTLTISSLQAEDVAVYYCKQSYNLYTFGQGTKVEIKR | 0.151 nM | – | – | – | – | –
MASP-3 mAb 11B6 (mouse-human chimeric IgG4) (antibody, V domains shown) VH: QVQLKQSGAELVKPGASVKMSCKASGYTFTTYPIEWMKQNHGKSLEWIGNFHPYNGDSKYNEKFKGKATLTVEKSSSTVYLELSRLPSADSAIYYCARRHYAASPWFAHWGQGTLVTVSS VL: DIVMTQSQKFMSTSVGDRVNVTCKASQNVGPTVAWYQQKPGQSPKALIYSASYRYSGVPDRFTGSGSGTDFTLTISNVHSEDLAEYFCQQYNSYPFTFGSGTKLEIKR | – | ≤ 500 pM | 0.06 nM | 0.066 nM | no binding (tested: about 20 nM (log10 about 1.3)) | no binding (tested: about 20 nM (log10 about 1.3))
MASP-3 mAb 1E7 (mouse-human chimeric IgG4) (antibody, V domains shown) VH: QVQLKQSGPELARPWASVKISCQAFYTFSRRVHFAIRDTNYWMQWVKQRPGQGLEWIGAIYPGNGDTSYNQKFKGKATLTADKSSSTAYMQLSSLTSEDSAVYYCASGSHYFDYWGQGTTLTVSS VL: DIQLTQSPAILSVSPGERVSFSCRASQSIGTSIHWYQQRTNGSPRLLIKYASESISGIPSRFSGSGSGTDFTLSINSVESEDIADYYCQQSNSWPYTFGGGTKLEIKR | – | ≤ 500 pM | 0.112 nM | 117 nM | – | –
h10D12-45-21-DA Fab (VH-45 and VL-21-DA) (Fab, V domains shown, also called 10D12-DA mutant) VH: QIQLVQSGSELKKPGASVKVSCKASGYIFTSYGMSWVRQAPGKGLKWMGWINTYSGVPTYADDFKGRFVFSLDTSVRTPYLQISSLKAEDTAVYFCARGGEAMDYWGQGTLVTVSS VL: DVLMTQTPLSLSVTPGQPASISCKSSQSLLDSAGKTYLNWLLQRPGQSPKRLIYLVSKLDSGVPDRFSGSGSGTDFTLKISRVEAEDVGVYYCWQGTHFPWTFGQGTKVEIKR | 0.294 nM | – | – | – | – | –

The next lines start with results.

EC50 [1] | binding affinity [3] | EC50 [4] | EC50 [5] | Binder | binding result [2] | binding result [6]
– | ≤ 500 pM | 0.074 nM | 0.092 nM | MASP-3 mAb 15D9 (mouse-human chimeric IgG4) (antibody, V domains shown) VH: QVQLKQSGTELMKPGASVNLSCKASGYTFTAYWIEWVKQRPGHGLEWIGEILPGSGTTNYNENFKDRATFTADTSSNTAYMQLSSLTSEDSAIYYCARSYYYASRWFAFWGQGTLVTVSS VL: DIVMTQSQKFMSTSIGDRVSVTCRASQNVGPNLAWYQQKPGQSPKALIYSASYRFSGVPDRFTGSGSGTDFTLTISNVQSEDLAEYFCQQYNRYPFTFGSGTKLEIKR | no binding (tested: about 20 nM (log10 about 1.3)) | no binding (tested: about 20 nM (log10 about 1.3))
– | ≤ 500 pM | 0.059 nM | 1.1 nM | MASP-3 mAb 1B11 (mouse-human chimeric IgG4) (antibody, V domains shown) VH: QVQLKQSGAELVRPGASVKLSCKASGYTFTDYYINWVKQRPGQGLEWIARIYPGSGNTYYNEKFKGKATLTAEKSSSTAYMQLSSLTSEDSAVYFCARNYYISSPWFAYWGQGTLVTVSS VL: DIVMTQSQKFMSTSVGDRVSVTCKASQNVGPNVAWYQQKPGQSPKALIYSASYRYSGVPDRFTGSGSGTDFTLTISNVQSEDLADYFCQQYNRYPLTFGAGTKLELKR | no binding (tested: about 20 nM (log10 about 1.3)) | no binding (tested: about 20 nM (log10 about 1.3))
– | ≤ 500 pM | 0.091 nM | 0.209 nM | MASP-3 mAb 35C1 (mouse-human chimeric IgG4) (antibody, V domains shown) VH: QIQLVQSGPELKTPGETVKISCKASGYIFTSYGITWVKQAPGKGLKWMGWINTYSGVPTYADDFKGRFAFSLETSASTAYLQINNLKNEDTTTYFCTRGGDALDYWGQGTSVTVSS VL: not shown | no binding (tested: about 20 nM (log10 about 1.3)) | no binding (tested: about 20 nM (log10 about 1.3))
– | ≤ 500 pM | 0.069 nM | 0.064 nM | MASP-3 mAb 49C11 (mouse-human chimeric IgG4) (antibody, V domains shown) VH: EVQLQQSGPVLVKPGASGKMSCKASGYKFTDYYMIWVKQSHGKSLEWIGVIKIYNGGTSYNQKFKGKATLTVDKSSSTAYMELNSLTSEDSAVYYCARGPSLYDYDPYWYFDVWGTGTTVTVSS VL: DVLMTQTPLSLPVSLGDQASFSCRSSQSLIHSNGNTYLHWYLQKPGQSPKLLIYKVSNRFSGVPDRFSGSGSGTDFTLKISRVEAEDLGVYFCSQSTHVPWTFGGGTKLEIKR | no binding (tested: about 20 nM (log10 about 1.3)) | no binding (tested: about 20 nM (log10 about 1.3))

Source: US20200270125A1 (OMEROS, published 2020)
